Each sequence was assayed against T1, OmpR-N6His (Xenorhabdus nematophila YL001) (UniProt D3VF01) (assay: EMSA). Conditions: EMSA: 5x buffer 250 mM Tris, 250 mM KCl, 0.5 mM DTT, 50 mM MgCl2, 25% glycerol, pH 8.0 (1x: 50 mM Tris, 50 mM KCl, 0.1 mM DTT, 10 mM MgCl2, 5% glycerol); 30 min.
T1 sequence: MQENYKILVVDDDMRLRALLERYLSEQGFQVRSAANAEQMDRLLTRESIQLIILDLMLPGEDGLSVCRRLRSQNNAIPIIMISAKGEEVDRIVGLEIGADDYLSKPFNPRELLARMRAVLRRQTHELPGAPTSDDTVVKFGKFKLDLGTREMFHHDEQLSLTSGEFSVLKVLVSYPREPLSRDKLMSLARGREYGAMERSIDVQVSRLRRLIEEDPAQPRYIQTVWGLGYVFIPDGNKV
For “CCGGCCTTTGGTAATAAATCAGGATAATTGAGTGATGTAAACGGGAAAACAAGGGGAAAAAACCAAAGCATAAGCAATGATTGCCAATACGGTTAATGGCCTTAAAATACATGTGGTTAGTTTCTATTGAATATGGGGTTTCGGTAAAAGTCATGGATATTGCGGGCATGGAGCATCTTGGGAGCTGAAAC (double strand) [PompR191]”, the binding was “no binding”.
With “TACGGCTACGTAAATAATAAAGCATTGGTTATGTCTGTTTGTTTTTTTGTACAAGGACGAATCTCAATTTAATTTCGAAAAATTGAGGTCATTGATCTTATTAATGGGTAGGTTGTTTACGATGTCAAAATGTTGCATTTGAAAACAGACAATCTTCCATTATTTAATGAGATCACTGCGATAAGTTTAGTGGAGTGAAATA (double strand) [PleuO202]” the binding was “no binding”.
For “TAATTCTTCCTCCAAGAGCAAAATACGATAACAAACTCCGCTATTCCATGACTTTACGTTCTTTTACATGCTCTGACGCTAGTTTGCAGCCGCAGGGTTATAGTTATCCACACTGAATCGAATAGAGCTATTCGAGAAAGCGGAGAAATTTAATGC (double strand) [PcpxR156]”, the binding was “no binding”.
For “TTTGGATTGCATAAATTTTGTTAAGAAAGGAGAAAAATAAAACCCCATGATAGTCTAAATAGTAAAAAAATGAAGTAAACCTTTGCCCTATTTAATAGAGTAGAGTAATGTCACAATCGGTATTATTTTATTTGATACTGCTGAAGTAAAAACACCAGGTTAGTTAGTAATTAAAATCAAAAAAAAGTGATGAATAAACAATG (double strand) [PlrhA203]”, the binding was “no binding”.
